Results on four molecules are retold here after US5889152A, “Porphenins--antibiotic peptides” (Regents of the University of California, priority 1995, dated 1999).

Where no end group is shown, it is not given here.

The subject of one experiment is C. albicans, strain 820. Description: Radial diffusion assay in agarose gels, C. albicans. In kind it is cell-based, Candida albicans. Particulars: clear zone units. As for the experimental part:
(§1) Aliquots (66 μl) of each fraction were dried by vacuum centrifugation, and resuspended in approximately 6.6 μl of 0.01% acetic acid. […] samples of this concentrate were tested for antimicrobial activity against E. coli ML-35, L. monocytogenes, Strain EGD and C. albicans, strain 820 by radial diffusion and gel overlay techniques (Lehrer, R. I. et al. J Immunol Meth (1991) 137:167-173). Active fractions were further examined by acid-urea PAGE and SDS-PAGE. Prophenins emerged from the P10 column in fractions 38-43 (39.6 ml total volume), which contained a total of 18 mg protein by BCA analysis.
(§2) The radial diffusion assay in agarose gels as described above was also used to test the activity of the purified prophenins. Samples of 5 μL each were added to 3 mm wells in thin gels composed of 10 mM sodium phosphate, 30 mg/ml trypticase soy broth powder in 1% agarose and containing approximately 4×10^5 CFU/ml of mid-log phase organisms. After allowing 3 hours for the samples to diffuse into the underlayer gel, a nutrient-rich overlay gel was poured and the plates were incubated for 24 hours at 37° C. to allow surviving organisms to form microcolonies. The diameters of the clear zones were measured and expressed in "units" (10 units=1 mm) as described previously.

In the next experiment the test system is E. coli ML-35. Description: Radial diffusion assay in agarose gels, E. coli. The settings on record: for inhibitory activity (FIG. 4a): E. coli ML-35, clear zone units. In kind it is cell-based. The procedure:
as §1, §2

Experiment [1] deals with lipid polysaccharide (LPS) of the Gram-negative bacterium E. coli strain 0.55B5. Description: Limulus amebocyte lysate (LAL) test for endotoxin binding. The settings on record: for concentration giving complete inhibition of gelation / concentration giving complete inhibition of gelation, molar: LAL test; for LAL gel formation: peptide 0.63 μg/ml (.625 in Table 4), LPS 0.05 endotoxin unit/ml. In kind it is biochemical. As for the experimental part: The prophenins of the invention were tested for their ability to bind the lipid polysaccharide (LPS) of the Gram-negative bacterium E. coli strain 0.55B5. The assay was the Limulus amebocyte lysate (LAL) test for endotoxins conducted in the presence and absence of the test compounds. The test was conducted using the procedure described in Sigma Technical Bulletin No. 210 as revised in December 1992 and published by Sigma Chemical Company, St. Louis, Mo.
The LAL test is based on the ability of LPS to effect gelation in the commercial reagent E-TOXATE™ which is prepared from the lysate of circulating amebocytes of the Horseshoe Crab Limulus polyphemus. As described in the technical bulletin, when exposed to minute quantities of LPS, the lysate increases in opacity as well as viscosity and may gel or clot depending on the concentration of endotoxin. The technical bulletin goes on to speculate that the mechanism appears analogous to the clotting of mammalian blood and involves the steps of activation of a trypsin-like preclotting enzymes by the LPS in the presence of calcium ion, followed by enzymic modifications of a "coagulogen" by proteolysis to produce a clottable protein. These steps are believed tied to the biologically active or "pyrogenic" portion of the molecule. It has been shown previously that detoxified LPS (or endotoxin) gives a negative LAL test.
Polymyxin B is a cyclic 1.2 kD acylated […] obtained from Bacillus polymyxa. Polymyxin B was used as a positive control since it is known to inhibit LPS-induced Limulus hemocyte lysate clotting.
In the assay, the amounts of prophenin-1 and polymyxin B (78% free polymyxin, Sigma) were preincubated in a final volume of 0.2 ml and the test mixtures contained LPS at a final concentration of 0.05 endotoxin unit/ml and E-TOXATE™ at the same concentration. The test compounds were incubated together with the LPS for 15 minutes before the E-TOXATE™ was added to a final volume (after E-TOXATE™ addition) of 0.2 ml. The tubes were then incubated for 60 minutes at 37° C. and examined for the formation of a gel.
The ability of fragments of prophenin-1 to bind LPS was also assayed. Prophenin-1 was digested with TLCK treated trypsin as described above, thus cleaving the protein C-terminal to the initial 4 arginines. The fragments were purified by RP-HPLC, and their identities were verified by ESI-MS and amino acid composition analysis. The three fragments were those obtained as described in Example 1 and are as follows: […]

The test system of experiment [2] is L. monocytogenes, Strain EGD. Description: Radial diffusion assay in agarose gels, L. monocytogenes. In kind it is cell-based, Listeria monocytogenes. As for the experimental part:
as §1, §2

HNP-1: human defensin (HNP-1), control: the “inhibitory activity (FIG. 4c)” value in the experiment with C. albicans, strain 820 is given as “substantially noninhibitory”.
With “PG-3: protegrin-3 (PG3), control (RGGGLCYCRRRFCVCVGR; ends and bridges not checked; cysteine pairing not given here; UniProt P32196 131-148, looked up) [reference compound]”, the “inhibitory activity (FIG. 4a)” value in the experiment with E. coli ML-35 is “more inhibitory than HNP-1”. The “inhibitory activity (FIG. 4c)” value in the experiment with C. albicans, strain 820 is reported as “successful antifungals”.
For Polymyxin B [reference compound], in experiment [1], the “concentration giving complete inhibition of gelation” value was found to be 5 µg/mL; the “concentration giving complete inhibition of gelation, molar” value is reported as “≈ 4.2 μM”; the LAL gel formation entry was “++”.

B1: Prophenin-1: 79-residue proline-rich antimicrobial peptide purified from porcine leukocytes, mass 8,683, SEQ ID NO:1 (protein)
chain: AFPPPNVPGPRFPPPNFPGPRFPPPNFPGPRFPPPNFPGPRFPPPNFPGPPFPPPIFPGPWFPPPPPFRPPPFGPPRFP
In the case of B1, in the experiment on E. coli ML-35, the “inhibitory activity (FIG. 4a)” value was “comparable in inhibitory activity to PG3 and NP1”. Moreover, the “specificity for Gram-negative bacteria” value in the experiment on E. coli ML-35 (compared over E. coli, L. monocytogenes, C. albicans) is listed as “highly specific for Gram-negative bacteria”. For the same molecule, in experiment [2] (FIG. 4b), the “concentrations at which some activity was shown” value is “above 100 μg/ml”. Further, in experiment [2] (clear zone units), the “inhibitory activity (FIG. 4b)” value is “substantially less inhibitory”. Besides, the “inhibitory activity (FIG. 4c)” value with C. albicans, strain 820 is listed as “substantially noninhibitory”. Also, in experiment [1], the “LPS binding / inactivation in words” value is “more effective than the additive value of the subunits”; the “concentration giving complete inhibition of gelation” value was 0.625 µg/mL; the “concentration giving complete inhibition of gelation, molar” value is recorded as “≈ 72 nM”; the LAL gel formation is 0. Also, the “potency in binding LPS relative to polymyxin B sulfate, molar basis” value in experiment [1] (4.2/0.072) was “approximately 60 fold”.
